US20200087363A1 (IMMATICS BIOTECHNOLOGIES, published 2020)

molecular target: T1, HLA-B*44:05 (human); assay: UV peptide exchange, anti-b2m ELISA
T1 construct: also called peptide-receptive MHC class I molecule
Summary of the method: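 Peptide-receptive HLA-B*44:05 monomers after UV-induced exchange were diluted 100-fold and captured on streptavidin-coated plates for 1 h at 37 °C. Bound complexes were detected with 2 µg/ml HRP-anti-β2m (1 h, 37 °C) and TMB, read at 450 nm. β2m signal reflects peptide-stabilized complex yield.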

Question: For AEEKAAVTSL, which peptide exchange yield is on record?
Answer: Its peptide exchange yield is 50 to 75%.

Question: With MEVDPIGHVY as the binder, how does the peptide exchange yield read?
Answer: The peptide exchange yield was 50 to 75%.

Question: With QELLDFTNW as the binder, how does the peptide exchange yield read?
Answer: Its peptide exchange yield is over 75%.

Question: How did the peptide exchange yield turn out when QEAKPRATW was run?
Answer: The peptide exchange yield was 50 to 75%.

Question: Which peptide exchange yield does the source give for GETVVLKNM here?
Answer: The peptide exchange yield was 50 to 75%.

Question: With AEMLGSVVGNW as the binder, how does the peptide exchange yield read?
Answer: The peptide exchange yield was 50 to 75%.

Question: Which peptide exchange yield does the source give for AESLFREAL here?
Answer: Its peptide exchange yield is 50 to 75%.

Question: How did the peptide exchange yield turn out when YEHAFNSIVW was run?
Answer: Its peptide exchange yield is over 75%.

Question: How did the peptide exchange yield turn out when KEVDPASNTY was run?
Answer: The peptide exchange yield was 50 to 75%.

Question: How did the peptide exchange yield turn out when EESFRCLPEW was run?
Answer: The peptide exchange yield was over 75%.

Question: Which peptide exchange yield does the source give for EEINELNRMI here?
Answer: The peptide exchange yield was 50 to 75%.

Question: Which peptide exchange yield does the source give for RELEEEFYSL here?
Answer: The peptide exchange yield was 50 to 75%.

Question: For EEAQWVRKYF, which peptide exchange yield is on record?
Answer: The peptide exchange yield was 50 to 75%.

Question: For GEPRKLLTQDW, which peptide exchange yield is on record?
Answer: The peptide exchange yield was 50 to 75%.

Question: KEAINLLKNY was tested. Which peptide exchange yield did it give?
Answer: Its peptide exchange yield is 50 to 75%.

Question: RETEDYSKQAL was tested. Which peptide exchange yield did it give?
Answer: The peptide exchange yield was 20 to 50%.

Question: Which peptide exchange yield does the source give for AEGYLDLDGI here?
Answer: Its peptide exchange yield is 20 to 50%.

Question: Which peptide exchange yield does the source give for TELEPGLTY here?
Answer: Its peptide exchange yield is 50 to 75%.

Question: For SEENTGKTYF, which peptide exchange yield is on record?
Answer: Its peptide exchange yield is 50 to 75%.

Question: How did the peptide exchange yield turn out when TEDYSKQAL was run?
Answer: The peptide exchange yield was 50 to 75%.

Question: Which peptide exchange yield does the source give for EEAGFPLAY here?
Answer: Its peptide exchange yield is 50 to 75%.

Question: SELSLLSLY was tested. Which peptide exchange yield did it give?
Answer: The peptide exchange yield was 50 to 75%.

Question: RELARVVTL was tested. Which peptide exchange yield did it give?
Answer: The peptide exchange yield was over 75%.

Question: EESFDSKFY was tested. Which peptide exchange yield did it give?
Answer: The peptide exchange yield was 50 to 75%.

Question: Which peptide exchange yield does the source give for AEALGAAKKL here?
Answer: Its peptide exchange yield is 20 to 50%.

Question: Which peptide exchange yield does the source give for MEFQNTQSY here?
Answer: The peptide exchange yield was 50 to 75%.

Question: Which peptide exchange yield does the source give for AERDLNVTI here?
Answer: The peptide exchange yield was 50 to 75%.

Question: For EEHVYESIIRW, which peptide exchange yield is on record?
Answer: The peptide exchange yield was 50 to 75%.

Question: How did the peptide exchange yield turn out when SEFGAPRW was run?
Answer: Its peptide exchange yield is 50 to 75%.

Question: For DELMRKESQW, which peptide exchange yield is on record?
Answer: Its peptide exchange yield is 50 to 75%.
